Measurements as given in the nanobody polyreactivity screen of Harvey et al. (2022).

Assay: yeast display, Sf9 membrane polyspecificity reagent, FACS + sequencing; frameworks hold sequencing errors
In short: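 Polyreactivity labels are assigned by the sorting gate from which each nanobody was recovered. The gates were low and high (top ~1%), set on anti-HA fluorescence for expression and streptavidin fluorescence for reagent binding. Before sorting, galactose-induced (36–48 hours) yeast display cells were stained for 1 hour at 4 °C with 10% biotinylated, detergent-solubilized Sf9 membrane reagent.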

| Sequence | polyreactivity (PSR sort gate) |
| --- | --- |
| QVQLEESGGGLVQAGGSLRLSCAASGYTFATYAMGWSRQAPGKERELVAAISQGGDRTNYADSVKGRFTISRDNAKITVYLQMNSLKPEDTSVYYCAVRYASRQSRFYYWGQGTQVTVSS | high polyreactivity |
| QVQLLESGGGLVPSRGSLRLSCAASGFIFGHNTMGWYRQAPGKERELVARITSSGGGTNYADSVKGRFTISRDNAKNTVYLQMNSLKPEDTAVYYCAAELLYWGYYDYDYWGQGTQVTVSS | high polyreactivity |
| QVQLVESGGGLVQAGGSLRLSCAASGSIFGLYGMGWYRQAPGKERELVAAISSGGTTNYADSVKGRFTISRDNAKNTVYLQMNSLKPEDTAVYYCAARYSRGAYIYYGWYGYGYWGQGTQVTVSS | low polyreactivity |
| QVQLVESGGGLVQAGGSLRLSCAASGRIFVSNAMGWYRQAPGKERELVAGINSGDRTYYADSVKGRFTISRDNAKNTVYLQMNSLNPEDTAVYYFADSSRRGTGLRYYWGQGTQVTVSS | high polyreactivity |
| QVQLVESGGGLVQAGGSLRLSCAASGSTFRDNAMGWYRQAPGKERELVAAISRSGARTYYADSVKGRFTISRDNAKNTVYLQMNSLKPEDTAVYYCNAVWRVKYRRGLDYWGQGTQVTVSS | high polyreactivity |
| QVQLVESGGGLVQAGGSLRLSCAASGRIFTANAMGWYRQAPGKERELVAAISWRGGSTYYADSVKGRFTISRDNAKNTVYLQMNSLKPEDTAVYYCNKVGATWRQWFGYWGQGTQVTVSS | high polyreactivity |
| QVQRVESGGGLVQAGGSLRLSCAASGLIFVVYAMGWYRQAPGKERELVADISSGGRTSYADSVKGRFTISRDNAKNTVYLQMNSLKPEDTAVYYCNAYPVFNQYYGWRYDYWGQGTQVTVSS | low polyreactivity |
| QVQIVDSGGGLVQAGCSLRLSCAASGFTFFSYAMGWYRQAHWKERELVAAISRSGGRKYYADSVKGRFTISRDNAKNTVYLLMNSLKPEDTAVYYCAAETKTIPFEYWGQGTQVTVSS | high polyreactivity |
| QVQLVESGGGLVQAGGSLRLICAASGSIFTIYAMGWYRQAPGKERELVAAISYSDTSTYYADSVKGRFTISRDNAKNTVYLQMNSLKPEDTAVYYCAAEDLWYIAYWDDMDYWGQGTQVTVSS | low polyreactivity |
| QDQLVESGGGLVQAGGSLRLSCAASGRTFRVYAMGWYRQAPGKERELVATITSSGGSTYYADSVKGRFTISRDNAKNTVYLQMNCLKPEDTAVYYCAADGGSASIHDYWGQGTQVTVSS | low polyreactivity |
| QVQLQESGGGLAQAVGSLRLSCAASGNIFDPDIMGSYRQAPAKERELVGSITHGGSTNYVDSVKGRFTISRDNATNTVHLQMNRLKPVDTGVYYCAAIGYPDIPSYFDYDSDFFNWGHGTQVTVSS | high polyreactivity |
| QVQLVESGGGLVQAGGSLRLSCAASGGTFWIYAMGWYRKAPGKERELVAGITTSGATTYYADSVKGRFTISRDNAKNTVYLQMNSLKPEDTAVYYCAADEYYRYEYWGQGTQVTVSS | low polyreactivity |
| QVQLVESSGGLVQAGGSLRLSCAASGRIFQAYAMGWYRQAPGKEREMVAAITGGGSTNYADSVKGRFTISRDNAKNTVYLQMNSLKPEDTAVYYCNAVTGTYGWGPQAREQEDYWGQGTQVTVSS | low polyreactivity |
| QVQLVESGGVLVQAAGSLRLSCAASGSIFDVNAMGWNRQAPGKEREFVAAISDSGGSTYYADSVKGRFTISRDNGKNTVYLQMNSLKPEDTAVYYCNADWSWYNYYDFDYWGQGTQVTVSS | low polyreactivity |
| QVQLVESGGGLVHAGGSLRLSSAASGGIFKYNPMGWYRQAPGTERELVARISFGGSRTYYADSVKGRFTISRDNAKNTCYVQMNSLKPADTAVYYCARRVTGTLYYTGYDYWGQGTQVTVSS | high polyreactivity |
| QVQLVESGGGLVQSGGSLPLSCAASGRIFSRNAMGWYRQAPGKERELVAAITSGGSTYYADSVKGRFTISRDNAKNTVYLQMNSLKPEDTAVSTVKILRYDYWGQGTQVTVSS | high polyreactivity |
| QVQLVESGGGLVQAGGSLRLSCAASGFIFDQYAMGWYRQAPGKERELVATINWSGGRTYYADSVKGRFTISRDNAKNTVYLQMNSLKPEDTAVYYCAADTYRTKLHSFRTGSGYDYWGQGTQVTVSS | low polyreactivity |
| QVQLVESGGGLVKAGGSLRLSCAASGRTFGVYAMGWYRQAPGKEREFVAVISWSDDSTYYADSVKGRFTISRDNAKNTVYFQMNSLKPEDSAVYYCAAQTPYGMYYWRQGTQVTVSS | low polyreactivity |
| QVQLLESGGGLGQAGGSLRLSCAASGIIFRDSGMGWYRQAPGKEREFVATITYSGGGTYYADSVKGRFTISRDHAKNTVYLQMNSLKPEDTAVYYCAAYPFYYDLAYDYWGQGTQVTVSS | low polyreactivity |
| QVQLVESGGGLVQAGGSLRLSCAASGSTIYSYTMGWYRQAPGKERELVAAISRGSSTYYADSVKGRFTISRDNAKNTVYLQMNSLKPEDTAVYYCAAQYRQIYYSYFEYYWGQGTQVTVSS | high polyreactivity |
| QVQLVESGGGLVQAGGSLRLSCAASGSTFTVNAMGLYRQAPGKERELVAAINWSGGSTYYADSVKGRFTISRDHAKNTVYLQMNSLKPEDTAVYYCNKDREPYGYWSFDYWGQGTQVTLSS | low polyreactivity |
| QVQLVESGGGLVQAGGSLRLSCAASGRIFRLYAMGWYRQAPGKERELVAAIRASGGNTYYADSVKGRFTISRDNAKNTVYLQMNSLKPEDSAVYYCAADYWSRYYTVPEWYNYWGQGTQVTVSS | high polyreactivity |

| Sequence | polyreactivity (PSR sort gate) |
| --- | --- |
| PVQLVESGGVLVQAGGSLRLSCAASGITFWDKAMGWYRQPPGKERELVAAITSGNTDYADSVKGRFTISRDNAKNSVYLPMTSLIPEDTAVYYCGAELLVGGGVTVDYWGQGTQVTVSS | low polyreactivity |
| QVQLVESGGCLVQAGGSLRLSCAASGRISPDYAMGWYRQAPGTERELVATISSGAGTTYYADSVKGRFTISRDNAKNTVYLQMNSLKPEDTAVYYCAAEDPSEFDYWGQGTQVTVSS | low polyreactivity |
| QVQLVESGGGLVQAGGSLRLSCAASGRIFPAYAMGWYRQAPGKERELVAAITGGGSTNYADSVKGRFTISRDNAKHTVYLQMNSLKPEDTAVYYCNAAVVWPNRQENDYWGQGTQVTVSS | low polyreactivity |
| QVQHVESGGGLVQAGGSLRLSCAASGRIFGGNAMGWYRQAPGKERELVAAISIGGGSTNYADSVKGRFTISRDNAKNTFYLQMNSLKPEDTAVYYCAARTRYTSVGKLYSWGQGTQVTVSS | high polyreactivity |
| QVQLVESGGGLVQAGGSLRLSCAASGSIYRNNAMGWYRQAPGKERELVAVISRRAGNTYYAVSVKGRFTISRDNAKNTVYLQMNSLKPEDTAVYYCAADYSKSSIRGDYWGQGTQVTVSS | low polyreactivity |
| QVQLVESGGGLVHAGGSLRLSCAASGFTFGQYAMGWYRQAPGKERELVAAIRSGGSTNYADSVKGRFTISRDNAKNTVYLQMNSLKPEDTAVYYCAAGYRRGWVTMGYWGQGTQVTVSS | high polyreactivity |
| QVQLEESGVGLVQAGGSLRLSCPASGRIIYRNAIVWYSQAPGKERELVAAITGSGGITYYADSVKGRFTISRDNAKNTVYLLMNSLKPEVTAVYYCAARAKFLSVPTYDNWGQGTQVTVSS | high polyreactivity |
| QVHLVESGGGLVQAGCSLRLSCAASGSTISRYAMGWNRQAPGKETELVATITGGGRTYYADSVKGRFTISRDNAKNTVYLQMNSLKPEDTAVYYCAVRGYHQYKYGYWGQGTQVTVSS | high polyreactivity |
| QVQLVESGGGLVQAGGSLRLSCAASGFTFSQYAMGWYRQAPGKERELVAAISRSGGSTYYADSVKGRFTISRDNAKNTVYLQMNSLKPEDTAVYYCAARGPVGYGWRYRPWHDYWGQGTQVTVSS | high polyreactivity |
| QVQLVESGGGLVQEGGSLRISCAASGFSYENNAMGRYRQAPGKERERVAGITSGGGSTYYADSVKGRFTISRDNAKNTVYLQMNSLKPEDTAVYYCNKMYTRVGFTFEYWGQGTQVTVSS | low polyreactivity |
| QFQLVESGGGLVQEGGSLRLSCAASGFTFYYYTMGWYRQAPGKERELVAAITWRGGSTNYADSVKGRFTISRDNAKNTVYLQMNSLKPEDTAVYYCAAVTYWFWPGMDYWGQGTQVTVSS | low polyreactivity |
| QVQLVESGGGLVQAGGSLRLSCAASGRIFTGYAMGWYRQAPGKERELVAAISRGGSTNYADSVKGRFTISRDNAKNTVFLQMNSLKPEDTAVYYCAAGVHWDRGDYWGQGTQVTVSS | low polyreactivity |
| QVQLVESGGGLVQAGGSLRLSCAASGSTFRYYAMGWYRQAPGKERELVAAITYSGGRTYYADSVKGRFTISRDNAKNTVYLQMNSLKPEDTAVYYCAASFRAWSGNYWGQGTQVTVSA | high polyreactivity |
| QLQLVESGGGLVQAGGSLRLSCAASGRIFVYYAMGWYRQAPGKERELVASISYSGASTYYADSVKGRFTISRDNAKNTVYFQMNSLKPEDTAVYYCNTDGDDFFHVIYDYWGQGTQVTVSS | low polyreactivity |
| QVQLVESGGGLVQAGGSLRLSCAASGRIFYFNAMGWNRQAPGKERELVADISSGGRTNYADSVKGRFTISRDNAKNTVYLQMNSLKPEDTAVYYCNADPYTSSGGYRGYDFDYWGQGTQVTVSS | low polyreactivity |
| QVQLVESGGGLVQAGGSLRLSCAASGFTIERYAMGWYRQAPGKERELVAVISTSGGSTYYADSVKGRFTISRDNAKNTVYLQMNSLKPEDTAVYYCAKDGSSRGDYHFGWGYYYWGQGSQVTVSS | low polyreactivity |
| QVQLVESGVGLVQAGGSLRLSCAASGRIFWDYGMGWYRQAPGKERELVAVITWGGGSTYYADSVKGRFTISRDNAKNTVYLQMNSLKPEDTAVYYCAKEYHYYYWGQGTEVTVSS | low polyreactivity |
| QVQLVESGGGLVQAGGSLRLSCAASGSTFHDKAMGWYRQAPGKERELVAAITKTAGSTYYADSVKGRFTISRDNAKNTVYLQMNSMKPEDTAVYYCNAKTYHSRRKVLRFDYWGQGTQVTVSS | low polyreactivity |
| QVQLQESGGGLVQAGGSLRLSCASSGSIYDDTYMGWYRQAPGKERELVATIDSGSTTNYADSVKRRITISRDNAKNTVYLQMNSLKPEDTAVYYCAAADSHIDYFDYWGQGTQVTVSS | low polyreactivity |
| QVQIVESGGGLVQAGGSLRLSCAASGSTFLKYTMGWYRQAPGKERELVAAISKSGGSTYYADSVKGRFTISRDNAKNTVYLQMNSLKPEDTAVYYCAIGRSWVSSYGYGYWGQGTQVTVSS | high polyreactivity |
| QVQLVESGGGLVQAGGSLRLSCAASGRTLDSNAMGWYRQAPGKERDLVATISKRGGNTYYADSVKGRFTISRDNAKNTVYLQMNSLKPEDTAVYYCAKDVPPEYPTSSYDYWGQGTQVTVSS | low polyreactivity |
